Literature values, collected in article PMC7456198.
Where two headings read alike, the source gives them in different places.

Experiments:
[1] = biological target: GLP-1 receptor (Homo sapiens) (UniProt P43220)
[2] = biological target: GLP-1 receptor (Homo sapiens) (UniProt P43220); remark: listed apart in the source

Chain of UniProt P43220 (P43220 24-463): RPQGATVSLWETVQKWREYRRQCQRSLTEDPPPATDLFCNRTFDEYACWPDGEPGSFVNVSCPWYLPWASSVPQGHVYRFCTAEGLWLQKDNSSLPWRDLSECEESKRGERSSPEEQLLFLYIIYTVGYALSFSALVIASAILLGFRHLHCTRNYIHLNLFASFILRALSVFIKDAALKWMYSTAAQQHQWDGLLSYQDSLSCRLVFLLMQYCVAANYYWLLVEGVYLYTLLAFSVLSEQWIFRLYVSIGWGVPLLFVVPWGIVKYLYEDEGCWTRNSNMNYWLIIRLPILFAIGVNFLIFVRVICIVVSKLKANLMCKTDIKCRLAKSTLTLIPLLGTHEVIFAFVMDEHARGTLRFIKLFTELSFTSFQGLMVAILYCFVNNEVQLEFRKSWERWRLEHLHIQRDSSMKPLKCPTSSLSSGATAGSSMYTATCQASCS

Row | Kd [1] | Kd [2] | Substance
1 | 0.38 nM | – | Semaglutide (from UniProt P01275)
2 | – | 0.11 nM | Liraglutide (from UniProt P01275)
